Measured values reported in PMC6508782.

Target: Hcf106 G6CV14C (Pisum sativum)
Assay: cross-linking; disulfide cross-linking with 1 mM CuP for 5 min of [3H]Hcf106 Cys variants integrated into NEM-pretreated thylakoid; non-reducing SDS-PAGE, fluorography

## Hcf106 G6CV14C (natural protein)
  stoichiometry N: < 8
